This note sets out measurements from publication PMC10107152.

Changes are numbered by the printed parent chain. Names and notes keep the numbering of the source.

B1: 2PS (2-pyrone synthase; WT-2PS) (Gerbera hybrid cultivar) (protein)
chain: MGSYSSDDVEVIREAGRAQGLATILAIGTATPPNCVAQADYADYYFRVTKSEHMVDLKEKFKRICEKTAIKKRYLALTEDYLQENPTMCEFMAPSLNARQDLVVTGVPMLGKEAAVKAIDEWGLPKSKITHLIFCTTAGVDMPGADYQLVKLLGLSPSVKRYMLYQQGCAAGGTVLRLAKDLAENNKGSRVLIVCSEITAILFHGPNENHLDSLVAQALFGDGAAALIVGSGPHLAVERPIFEIVSTDQTILPDTEKAMKLHLREGGLTFQLHRDVPLMVAKNIENAAEKALSPLGITDWNSVFWMVHPGGRAILDQVERKLNLKEDKLRASRHVLSEYGNLISACVLFIIDEVRKRSMAEGKSTTGEGLDCGVLFGFGPGMTVETVVLRSVRVTAAVANGN
B2: 2PS (2-pyrone synthase; WT-2PS) (Gerbera hybrid cultivar; I201V/I343S/L202T) (protein)
chain: B1 chain with I201V, L202T, I343S
B3: 2PS (2-pyrone synthase; WT-2PS) (Gerbera hybrid cultivar; I201V/I343S/L202T/L261V) (protein)
chain: B1 chain with I201V, L202T, L261V, I343S
B4: 2PS (2-pyrone synthase; WT-2PS) (Gerbera hybrid cultivar; I201V/I343S/L202T/L261A) (protein)
chain: B1 chain with I201V, L202T, L261A, I343S
B5: 2PS (2-pyrone synthase; WT-2PS) (Gerbera hybrid cultivar; I201V/I343S/L202T/L261G) (protein)
chain: B1 chain with I201V, L202T, L261G, I343S
B6: SPS (styrylpyrone synthase; WT-SPS) (Piper methysticum) (protein)
chain: MSKTVEDRAAQRAKGPATVLAIGTATPANVVYQTDYPDYYFRVTKSEHMTKLKNKFQRMCDRSTIKKRYMVLTEELLEKNLSLCTYMEPSLDARQDILVPEVPKLGKEAADEAIAEWGRPKSEITHLIFCTTCGVDMPGADYQLTKLLGLRSSVRRTMLYQQGCFGGGTVLRLAKDLAENNAGARVLVVCSEITTAVNFRGPSDTHLDLLVGLALFGDGAAAVIVGADPDPTLERPLFQIVSGAQTILPDSEGAINGHLREVGLTIRLLKDVPGLVSMNIEKCLMEAFAPMGIHDWNSIFWIAHPGGPTILDQVEAKLGLKEEKLKSTRAVLREYGNMSSACVLFILDEVRKRSMEEGKTTTGEGFDWGVLFGFGPGFTVETVVLHSMPIPKADEGR

Substrate in this data set: CC(C)(COP(=O)(O)OP(=O)(O)OC[C@H]1O[C@@H](n2cnc3c(N)ncnc32)[C@H](O)[C@@H]1OP(=O)(O)O)[C@@H](O)C(=O)NCCC(=O)NCCSC(=O)/C=C/c1ccccc1
Briefly: purified protein. The note with it: varied cinnamoyl-CoA; malonyl-CoA as extender.
One may read the Km as the concentration of substrate that gives half-maximal velocity. The kcat is the number of substrate molecules converted per active site and unit of time at saturation. By kcat/Km is commonly meant the turnover number divided by the Michaelis constant. Regarding B1, the Michaelis constant (Km) was 1.6 ± 0.5 µM, the turnover number (kcat) was 0.000533 ± 5e-05 s⁻¹ and the specificity constant (kcat/Km) was found to be 340 ± 60 M⁻¹ s⁻¹.

In the case of B2, the Km stood at 1.4 ± 0.3 µM, the kcat turned out to be 0.000767 ± 3.33e-05 s⁻¹ and the specificity constant (kcat/Km) was found to be 568 ± 116 M⁻¹ s⁻¹.

Turning to B3, the Km worked out at 2.1 ± 0.5 µM, the kcat stood at 0.00225 ± 0.000167 s⁻¹ and the kcat/Km amounted to 1070 ± 270 M⁻¹ s⁻¹.

For the protein B4, the Michaelis constant (Km) turned out to be 4.2 ± 0.8 µM, the kcat was determined as 0.0312 ± 0.00233 s⁻¹ and the kcat/Km was determined as 7400 ± 1500 M⁻¹ s⁻¹.

For B5, the Michaelis constant (Km) was 7.1 ± 1.1 µM, the kcat was determined as 0.165 ± 0.01 s⁻¹ and the kcat/Km stood at 23000 ± 4000 M⁻¹ s⁻¹.

As to B6, the Michaelis constant (Km) was determined as 3.7 ± 0.5 µM, the kcat was determined as 0.00287 ± 0.0001 s⁻¹ and the specificity constant (kcat/Km) came out at 770 ± 30 M⁻¹ s⁻¹.
